Measured values reported in the RNAGym collection of RNA variant scans (doi:10.1021/acssynbio.7b00057).

B1: Pistol ribozyme (parent)
chain: GGGUCGUUGUUCCAUAAUCGCGUGGAUAUGGCACGCAAGUUUCUACCGGGCACCGUAAAUGUCCGACUGGAGCCGUUCGGGCGGCUAUAAACAGACCUCAGGCCCGAAGCGUGGCGGCACCUGCCGCCGGUGGUAAAAAAGAUCGGAAGAGCACACGUCU

Variants of: B1
Test: aptazyme ON/OFF ratio, guanine; higher = stronger switching; co-transcriptional cleavage with and without guanine

| Variant | aptazyme ON/OFF ratio |
| --- | --- |
| GGGUCGAAGGCAUAUAAUCGCGUGGAUAUGGCACGCAAGUUUCUACCGGGCACCGUAAAUGUCCGACUGGAGCCGUUCGGGCGGCUAUAAACAGACCUCAGGCCCGAAGCGUGGCGGCACCUGCCGCCGGUGGUAAAAAAGAUCGGAAGAGCACACGUCU [U7A U8A U10G U11C C12A C13U] | 1.34 |
| GGGUCGAAGGCAAAUAAUCGCGUGGAUAUGGCACGCAAGUUUCUACCGGGCACCGUAAAUGUCCGACUGGAGCCGUUCGGGCGGCUAUAAACAGACCUCAGGCCCGAAGCGUGGCGGCACCUGCCGCCGGUGGUAAAAAAGAUCGGAAGAGCACACGUCU [U7A U8A U10G U11C C12A C13A] | 1.28 |
| GGGUCGAAGGCAGAUAAUCGCGUGGAUAUGGCACGCAAGUUUCUACCGGGCACCGUAAAUGUCCGACUGGAGCCGUUCGGGCGGCUAUAAACAGACCUCAGGCCCGAAGCGUGGCGGCACCUGCCGCCGGUGGUAAAAAAGAUCGGAAGAGCACACGUCU [U7A U8A U10G U11C C12A C13G] | 1.09 |
| GGGUCGAAGGAUGAUAAUCGCGUGGAUAUGGCACGCAAGUUUCUACCGGGCACCGUAAAUGUCCGACUGGAGCCGUUCGGGCGGCUAUAAACAGACCUCAGGCCCGAAGCGUGGCGGCACCUGCCGCCGGUGGUAAAAAAGAUCGGAAGAGCACACGUCU [U7A U8A U10G U11A C12U C13G] | 1.27 |
| GGGUCGAAGGAUUAUAAUCGCGUGGAUAUGGCACGCAAGUUUCUACCGGGCACCGUAAAUGUCCGACUGGAGCCGUUCGGGCGGCUAUAAACAGACCUCAGGCCCGAAGCGUGGCGGCACCUGCCGCCGGUGGUAAAAAAGAUCGGAAGAGCACACGUCU [U7A U8A U10G U11A C12U C13U] | 1.11 |
| GGGUCGAAGGAUAAUAAUCGCGUGGAUAUGGCACGCAAGUUUCUACCGGGCACCGUAAAUGUCCGACUGGAGCCGUUCGGGCGGCUAUAAACAGACCUCAGGCCCGAAGCGUGGCGGCACCUGCCGCCGGUGGUAAAAAAGAUCGGAAGAGCACACGUCU [U7A U8A U10G U11A C12U C13A] | 1.35 |
| GGGUCGAAGGUGCAUAAUCGCGUGGAUAUGGCACGCAAGUUUCUACCGGGCACCGUAAAUGUCCGACUGGAGCCGUUCGGGCGGCUAUAAACAGACCUCAGGCCCGAAGCGUGGCGGCACCUGCCGCCGGUGGUAAAAAAGAUCGGAAGAGCACACGUCU [U7A U8A U10G C12G] | 1.43 |
| GGGUCGAAGGUUCAUAAUCGCGUGGAUAUGGCACGCAAGUUUCUACCGGGCACCGUAAAUGUCCGACUGGAGCCGUUCGGGCGGCUAUAAACAGACCUCAGGCCCGAAGCGUGGCGGCACCUGCCGCCGGUGGUAAAAAAGAUCGGAAGAGCACACGUCU [U7A U8A U10G C12U] | 1.35 |
| GGGUCGAAGGAAGAUAAUCGCGUGGAUAUGGCACGCAAGUUUCUACCGGGCACCGUAAAUGUCCGACUGGAGCCGUUCGGGCGGCUAUAAACAGACCUCAGGCCCGAAGCGUGGCGGCACCUGCCGCCGGUGGUAAAAAAGAUCGGAAGAGCACACGUCU [U7A U8A U10G U11A C12A C13G] | 1.1 |
| GGGUCGAAGGAAUAUAAUCGCGUGGAUAUGGCACGCAAGUUUCUACCGGGCACCGUAAAUGUCCGACUGGAGCCGUUCGGGCGGCUAUAAACAGACCUCAGGCCCGAAGCGUGGCGGCACCUGCCGCCGGUGGUAAAAAAGAUCGGAAGAGCACACGUCU [U7A U8A U10G U11A C12A C13U] | 1.7 |
| GGGUCGAAGGAAAAUAAUCGCGUGGAUAUGGCACGCAAGUUUCUACCGGGCACCGUAAAUGUCCGACUGGAGCCGUUCGGGCGGCUAUAAACAGACCUCAGGCCCGAAGCGUGGCGGCACCUGCCGCCGGUGGUAAAAAAGAUCGGAAGAGCACACGUCU [U7A U8A U10G U11A C12A C13A] | 1.64 |
| GGGUCGAAGGCGCAUAAUCGCGUGGAUAUGGCACGCAAGUUUCUACCGGGCACCGUAAAUGUCCGACUGGAGCCGUUCGGGCGGCUAUAAACAGACCUCAGGCCCGAAGCGUGGCGGCACCUGCCGCCGGUGGUAAAAAAGAUCGGAAGAGCACACGUCU [U7A U8A U10G U11C C12G] | 1.32 |
| GGGUCGAAGGCACAUAAUCGCGUGGAUAUGGCACGCAAGUUUCUACCGGGCACCGUAAAUGUCCGACUGGAGCCGUUCGGGCGGCUAUAAACAGACCUCAGGCCCGAAGCGUGGCGGCACCUGCCGCCGGUGGUAAAAAAGAUCGGAAGAGCACACGUCU [U7A U8A U10G U11C C12A] | 1.61 |
| GGGUCGAAGGAGAAUAAUCGCGUGGAUAUGGCACGCAAGUUUCUACCGGGCACCGUAAAUGUCCGACUGGAGCCGUUCGGGCGGCUAUAAACAGACCUCAGGCCCGAAGCGUGGCGGCACCUGCCGCCGGUGGUAAAAAAGAUCGGAAGAGCACACGUCU [U7A U8A U10G U11A C12G C13A] | 1.2 |
| GGGUCGAAGGAGUAUAAUCGCGUGGAUAUGGCACGCAAGUUUCUACCGGGCACCGUAAAUGUCCGACUGGAGCCGUUCGGGCGGCUAUAAACAGACCUCAGGCCCGAAGCGUGGCGGCACCUGCCGCCGGUGGUAAAAAAGAUCGGAAGAGCACACGUCU [U7A U8A U10G U11A C12G C13U] | 1.51 |
| GGGUCGAAGGAGGAUAAUCGCGUGGAUAUGGCACGCAAGUUUCUACCGGGCACCGUAAAUGUCCGACUGGAGCCGUUCGGGCGGCUAUAAACAGACCUCAGGCCCGAAGCGUGGCGGCACCUGCCGCCGGUGGUAAAAAAGAUCGGAAGAGCACACGUCU [U7A U8A U10G U11A C12G C13G] | 1.16 |
| GGGUCGAAGGUGUAUAAUCGCGUGGAUAUGGCACGCAAGUUUCUACCGGGCACCGUAAAUGUCCGACUGGAGCCGUUCGGGCGGCUAUAAACAGACCUCAGGCCCGAAGCGUGGCGGCACCUGCCGCCGGUGGUAAAAAAGAUCGGAAGAGCACACGUCU [U7A U8A U10G C12G C13U] | 1.28 |
| GGGUCGAAGGUGGAUAAUCGCGUGGAUAUGGCACGCAAGUUUCUACCGGGCACCGUAAAUGUCCGACUGGAGCCGUUCGGGCGGCUAUAAACAGACCUCAGGCCCGAAGCGUGGCGGCACCUGCCGCCGGUGGUAAAAAAGAUCGGAAGAGCACACGUCU [U7A U8A U10G C12G C13G] | 0.977 |

| Variant | aptazyme ON/OFF ratio |
| --- | --- |
| GGGUCGAAGGUGAAUAAUCGCGUGGAUAUGGCACGCAAGUUUCUACCGGGCACCGUAAAUGUCCGACUGGAGCCGUUCGGGCGGCUAUAAACAGACCUCAGGCCCGAAGCGUGGCGGCACCUGCCGCCGGUGGUAAAAAAGAUCGGAAGAGCACACGUCU [U7A U8A U10G C12G C13A] | 1.17 |
| GGGUCGAAGGAUCAUAAUCGCGUGGAUAUGGCACGCAAGUUUCUACCGGGCACCGUAAAUGUCCGACUGGAGCCGUUCGGGCGGCUAUAAACAGACCUCAGGCCCGAAGCGUGGCGGCACCUGCCGCCGGUGGUAAAAAAGAUCGGAAGAGCACACGUCU [U7A U8A U10G U11A C12U] | 1.24 |
| GGGUCGAAGGAGCAUAAUCGCGUGGAUAUGGCACGCAAGUUUCUACCGGGCACCGUAAAUGUCCGACUGGAGCCGUUCGGGCGGCUAUAAACAGACCUCAGGCCCGAAGCGUGGCGGCACCUGCCGCCGGUGGUAAAAAAGAUCGGAAGAGCACACGUCU [U7A U8A U10G U11A C12G] | 1.34 |
| GGGUCGAAGGAACAUAAUCGCGUGGAUAUGGCACGCAAGUUUCUACCGGGCACCGUAAAUGUCCGACUGGAGCCGUUCGGGCGGCUAUAAACAGACCUCAGGCCCGAAGCGUGGCGGCACCUGCCGCCGGUGGUAAAAAAGAUCGGAAGAGCACACGUCU [U7A U8A U10G U11A C12A] | 1.4 |
| GGGUCGAAGGUCGAUAAUCGCGUGGAUAUGGCACGCAAGUUUCUACCGGGCACCGUAAAUGUCCGACUGGAGCCGUUCGGGCGGCUAUAAACAGACCUCAGGCCCGAAGCGUGGCGGCACCUGCCGCCGGUGGUAAAAAAGAUCGGAAGAGCACACGUCU [U7A U8A U10G C13G] | 1.12 |
| GGGUCGAAGGUCAAUAAUCGCGUGGAUAUGGCACGCAAGUUUCUACCGGGCACCGUAAAUGUCCGACUGGAGCCGUUCGGGCGGCUAUAAACAGACCUCAGGCCCGAAGCGUGGCGGCACCUGCCGCCGGUGGUAAAAAAGAUCGGAAGAGCACACGUCU [U7A U8A U10G C13A] | 1.31 |
| GGGUCGAAGGUCUAUAAUCGCGUGGAUAUGGCACGCAAGUUUCUACCGGGCACCGUAAAUGUCCGACUGGAGCCGUUCGGGCGGCUAUAAACAGACCUCAGGCCCGAAGCGUGGCGGCACCUGCCGCCGGUGGUAAAAAAGAUCGGAAGAGCACACGUCU [U7A U8A U10G C13U] | 1.22 |
| GGGUCGAAGGACCAUAAUCGCGUGGAUAUGGCACGCAAGUUUCUACCGGGCACCGUAAAUGUCCGACUGGAGCCGUUCGGGCGGCUAUAAACAGACCUCAGGCCCGAAGCGUGGCGGCACCUGCCGCCGGUGGUAAAAAAGAUCGGAAGAGCACACGUCU [U7A U8A U10G U11A] | 1.03 |
| GGGUCGAAGGCCCAUAAUCGCGUGGAUAUGGCACGCAAGUUUCUACCGGGCACCGUAAAUGUCCGACUGGAGCCGUUCGGGCGGCUAUAAACAGACCUCAGGCCCGAAGCGUGGCGGCACCUGCCGCCGGUGGUAAAAAAGAUCGGAAGAGCACACGUCU [U7A U8A U10G U11C] | 1.03 |
| GGGUCGAAGGCGUAUAAUCGCGUGGAUAUGGCACGCAAGUUUCUACCGGGCACCGUAAAUGUCCGACUGGAGCCGUUCGGGCGGCUAUAAACAGACCUCAGGCCCGAAGCGUGGCGGCACCUGCCGCCGGUGGUAAAAAAGAUCGGAAGAGCACACGUCU [U7A U8A U10G U11C C12G C13U] | 1.39 |
| GGGUCGAAGGCGAAUAAUCGCGUGGAUAUGGCACGCAAGUUUCUACCGGGCACCGUAAAUGUCCGACUGGAGCCGUUCGGGCGGCUAUAAACAGACCUCAGGCCCGAAGCGUGGCGGCACCUGCCGCCGGUGGUAAAAAAGAUCGGAAGAGCACACGUCU [U7A U8A U10G U11C C12G C13A] | 1.23 |
| GGGUCGAAGGCGGAUAAUCGCGUGGAUAUGGCACGCAAGUUUCUACCGGGCACCGUAAAUGUCCGACUGGAGCCGUUCGGGCGGCUAUAAACAGACCUCAGGCCCGAAGCGUGGCGGCACCUGCCGCCGGUGGUAAAAAAGAUCGGAAGAGCACACGUCU [U7A U8A U10G U11C C12G C13G] | 1.11 |
| GGGUCGAAGGUUGAUAAUCGCGUGGAUAUGGCACGCAAGUUUCUACCGGGCACCGUAAAUGUCCGACUGGAGCCGUUCGGGCGGCUAUAAACAGACCUCAGGCCCGAAGCGUGGCGGCACCUGCCGCCGGUGGUAAAAAAGAUCGGAAGAGCACACGUCU [U7A U8A U10G C12U C13G] | 1.13 |
| GGGUCGAAGGUUAAUAAUCGCGUGGAUAUGGCACGCAAGUUUCUACCGGGCACCGUAAAUGUCCGACUGGAGCCGUUCGGGCGGCUAUAAACAGACCUCAGGCCCGAAGCGUGGCGGCACCUGCCGCCGGUGGUAAAAAAGAUCGGAAGAGCACACGUCU [U7A U8A U10G C12U C13A] | 1.51 |
| GGGUCGAAGGUUUAUAAUCGCGUGGAUAUGGCACGCAAGUUUCUACCGGGCACCGUAAAUGUCCGACUGGAGCCGUUCGGGCGGCUAUAAACAGACCUCAGGCCCGAAGCGUGGCGGCACCUGCCGCCGGUGGUAAAAAAGAUCGGAAGAGCACACGUCU [U7A U8A U10G C12U C13U] | 1.42 |
| GGGUCGAAGGACUAUAAUCGCGUGGAUAUGGCACGCAAGUUUCUACCGGGCACCGUAAAUGUCCGACUGGAGCCGUUCGGGCGGCUAUAAACAGACCUCAGGCCCGAAGCGUGGCGGCACCUGCCGCCGGUGGUAAAAAAGAUCGGAAGAGCACACGUCU [U7A U8A U10G U11A C13U] | 1.15 |
| GGGUCGAAGGACGAUAAUCGCGUGGAUAUGGCACGCAAGUUUCUACCGGGCACCGUAAAUGUCCGACUGGAGCCGUUCGGGCGGCUAUAAACAGACCUCAGGCCCGAAGCGUGGCGGCACCUGCCGCCGGUGGUAAAAAAGAUCGGAAGAGCACACGUCU [U7A U8A U10G U11A C13G] | 1.16 |
| GGGUCGAAGGACAAUAAUCGCGUGGAUAUGGCACGCAAGUUUCUACCGGGCACCGUAAAUGUCCGACUGGAGCCGUUCGGGCGGCUAUAAACAGACCUCAGGCCCGAAGCGUGGCGGCACCUGCCGCCGGUGGUAAAAAAGAUCGGAAGAGCACACGUCU [U7A U8A U10G U11A C13A] | 1.19 |
